In article PMC3075868:

Key:
[1] = biological target: HIV-1 NL4-3 CA N21C/A22C/W184A/M185A (disulfide-crosslinked pentamer) (HIV-1 NL4-3); assay: crystal structure
[2] = biological target: HIV-1 NL4-3 CA P17C/R18L/T19C/W184A/M185A (disulfide-crosslinked pentamer) (HIV-1 NL4-3); assay: crystal structure

Substance | stoichiometry N [1] | stoichiometry N [2]
HIV-1 NL4-3 CA N21C/A22C/W184A/M185A (disulfide-crosslinked pentamer) (natural protein) | 5 | –
HIV-1 NL4-3 CA P17C/R18L/T19C/W184A/M185A (disulfide-crosslinked pentamer) (natural protein) | – | 5
